Marks after values point to notes of the source that are not given here.
Legend:
[1] = system: EGFR-mutated NSCLC; conditions: cited from earlier work
[2] = Phase I study U31402-A-U102, HER3-DXd i.v. once every 3 weeks: safety; format: in vivo, human
[3] = all patients 3.2/4.8/5.6/6.4 mg/kg (n = 81)

Molecule: C=CC(=O)Nc1cc(Nc2nccc(-c3cn(C)c4ccccc34)n2)c(OC)cc1N(C)CCN(C)C [osimertinib, reference compound]
- Median OS ([1]; third-generation EGFR TKI compared with first-generation EGFR TKIs): 38.6 months

Molecule: Patritumab deruxtecan [HER3-DXd]
- Patients who experienced dose-limiting toxicities ([2]; 4.8 mg/kg dose group, grade 3 neutrophil count decreased, grade 4 platelet count decrease, white blood cell count decrease): 1 patient
- Patients who experienced dose-limiting toxicities ([2]; 6.4 mg/kg dose group, grade 4 platelet count decrease): 3 patients
- Patients who experienced dose-limiting toxicities ([2]; […] dose group, grade 3 febrile neutropenia and grade 4 platelet count decrease): 1 patient
- Adjudicated treatment-related ILD, patients ([2]; all doses (4/81)): 5%
- TEAEs associated with death, patients ([2]; all doses (5/81), none judged related to study treatment): 6%
- Treatment discontinued due to TEAEs, patients ([2]; all doses (7/81)): 9%
- Grade 4 thrombocytopenia, patients ([2]; all doses (11/81)): 13.6%
- Grade ≥3 neutropenia, patients ([2]; all doses (12/81)): 15%
- TEAEs associated with dose reduction, patients ([2]; all doses (18/81)): 22%
- Grade ≥3 thrombocytopenia, patients ([2]; all doses (21/81)): 26%
- TEAEs associated with dose interruption, patients ([2]; all doses (30/81)): 37%
- TEAE nausea, patients ([2]; all doses (49/81)): 60%
- Grade ≥3 TEAEs, patients ([2]; all doses (52/81)): 64%
- TEAE fatigue, patients ([2]; all doses (52/81)): 64%
- Adjudicated ILD [2, 3]: 5 (6)^e n (%)
- Adjudicated treatment-related ILD [2, 3]: 4 (5)^f n (%)
- Any TEAE [2, 3]: 81 (100) n (%)
- Grade ≥3 TEAE: Anemia/hemoglobin decrease [2, 3]: 6 (7) n (%)
- Grade ≥3 TEAE: Dyspnea [2, 3]: 5 (6) n (%)
- Grade ≥3 TEAE: Fatigue [2, 3]: 8 (10) n (%)
- Grade ≥3 TEAE: Febrile neutropenia [2, 3]: 5 (6) n (%)
- Grade ≥3 TEAE: Hypokalemia [2, 3]: 4 (5) n (%)
- Grade ≥3 TEAE: Hypoxia [2, 3]: 5 (6) n (%)
- Grade ≥3 TEAE: Lymphocyte count decrease/lymphopenia [2, 3]: 4 (5) n (%)
- Grade ≥3 TEAE: Neutrophil count decrease/neutropenia [2, 3]: 12 (15) n (%)
- Grade ≥3 TEAE: Platelet count decrease/thrombocytopenia [2, 3]: 21 (26) n (%)
- Grade ≥3 TEAE: White blood cell count decrease/leukopenia [2, 3]: 5 (6) n (%)
- Grade ≥3 TEAEs [2, 3]: 52 (64) n (%)
- Grade ≥3 treatment-related TEAEs [2, 3]: 38 (47) n (%)
- Serious TEAEs [2, 3]: 32 (40) n (%)
- Serious treatment-related TEAEs [2, 3]: 15 (19) n (%)
- TEAEs associated with death [2, 3]: 5 (6)^d n (%)
- TEAEs associated with dose interruption [2, 3]: 30 (37) n (%)
- TEAEs associated with dose reduction [2, 3]: 18 (22) n (%)
- TEAEs associated with treatment discontinuation [2, 3]: 7 (9)^b n (%)
- Treatment-related TEAEs [2, 3]: 78 (96) n (%)
- Treatment-related TEAEs associated with death [2, 3]: 0 n (%)
- Patients who experienced dose-limiting toxicities ([2]; dose escalation part, 36 patients): 5 patients
- Recommended dose for expansion (RDE) ([2]; i.v. once every 3 weeks): 5.6 mg/kg
- TEAEs associated with dose interruption ([2]; pooled RDE […] (n = 57)): 21 (37) n (%)
- TEAEs associated with dose reduction ([2]; pooled RDE […] (n = 57)): 12 (21) n (%)

B1: seribantumab (antibody, chains of the INN, looked up)
heavy: EVQLLESGGGLVQPGGSLRLSCAASGFTFSHYVMAWVRQAPGKGLEWVSSISSSGGWTLYADSVKGRFTISRDNSKNTLYLQMNSLRAEDTAVYYCTRGLKMATIFDYWGQGTLVTVSSASTKGPSVFPLAPCSRSTSESTAALGCLVKDYFPEPVTVSWNSGALTSGVHTFPAVLQSSGLYSLSSVVTVPSSNFGTQTYTCNVDHKPSNTKVDKTVERKCCVECPPCPAPPVAGPSVFLFPPKPKDTLMISRTPEVTCVVVDVSHEDPEVQFNWYVDGVEVHNAKTKPREEQFNSTFRVVSVLTVVHQDWLNGKEYKCKVSNKGLPAPIEKTISKTKGQPREPQVYTLPPSREEMTKNQVSLTCLVKGFYPSDIAVEWESNGQPENNYKTTPPMLDSDGSFFLYSKLTVDKSRWQQGNVFSCSVMHEALHNHYTQKSLSLSPG
light: QSALTQPASVSGSPGQSITISCTGTSSDVGSYNVVSWYQQHPGKAPKLIIYEVSQRPSGVSNRFSGSKSGNTASLTISGLQTEDEADYYCCSYAGSSIFVIFGGGTKVTVLGQPKAAPSVTLFPPSSEELQANKATLVCLVSDFYPGAVTVAWKADGSPVKVGVETTKPSKQSNNKYAASSYLSLTPEQWKSHRSYSCRVTHEGSTVEKTVAPAECS
- Efficacy of unconjugated HER3 antibody ([1]; in combination with erlotinib): did not confer clinically meaningful efficacy
